In the nanobody polyreactivity screen of Harvey et al. (2022):

Experiment: yeast display, Sf9 membrane polyspecificity reagent, FACS + sequencing; frameworks hold sequencing errors
Summary of the method: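 Galactose-induced (36–48 hours) yeast carrying a synthetic nanobody display library were exposed to 10% biotinylated, detergent-solubilized Sf9 membrane reagent at 4 °C for 1 hour. FACS followed streptavidin microbead enrichment, using low and high (top ~1%) gates for expression (anti-HA) and reagent binding (streptavidin). Colony PCR, MiSeq 2 × 250 sequencing and CDR-length filtering followed. Labels for polyreactivity reflect the gate of origin.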

Row | Sequence | polyreactivity (PSR sort gate)
1 | QVQLVESGGGLFQAGGSLRLSCAASGITLAYNAMGWYRQAPGKEREFVAAIDVSGGRTYYADSVKVRFTISRDKSKNTVNLQMNSLNPEDTAVYYCAADVAEFSVGYWQDYDYWGQGTQVTVSS | low polyreactivity
2 | QVQLVESGGGLVQAGGSLRLSCAASGRTFDSYTMGWYRQAPGKERELVADITFTGGSTYYADSVKGRFTISRDNAKNTVYLQMNSLKPEDTAVYYCNADREYKWYFRYDYWGQGTQVTVSS | low polyreactivity
3 | QVQLVESWGGLVHAGGSLRLSCAASGSTFYWYAMGWYIQAPGKEREFVARISSSGSSTFYADSVKGRFTISRDNAKNTVYLQMNSLKPEDTAVYYCAAETYRHYCFNYWGQGTQVTVSS | high polyreactivity
4 | QVQLVESGGGLVQAGGSLRLSCAASGSIFYAYAMGWYRQAPGKERQLVAAIRSSDSRTYYADSVKGRFTISRDNAKNTVYLQMNSLKPEDTGVYYCDADGSRKVKFDYWGQGTQVTVSS | high polyreactivity
5 | QVQLVESGGGLVQAGGSLRLSCAASGFTFIRNGMGWYRQAPGKERELVAAINSRGGNTYYADSVKGRFTISRDNAKNTVYLQMNSLKPEDTAVYYCNRVVQRWSTQYGYWGQGTQVTVSS | high polyreactivity
6 | QVQLVESGGGLVQAGGSLRLSCAASGITFTSYAMGWYRQAPGKERELVAAISSSGVRTYYADSVKGRFTISRDNAKNTVYLQMNSLKPEDTAVYYCATRRRVLYGYDYWGQGTQVTVSS | high polyreactivity
7 | QVQLVESGGGLVQAGGSLRLSCAASGSTFDDYVMGWYRQAPGKERELVAGINSRGTSTDYAGSVKGRFTISRDNAKNTVYLQMNSLKPEDTAVYYCAADDSHGYDYWGQGTQVTVSS | low polyreactivity
8 | QVQLVESGGGLVQAGGSLRLSCAASGRTFLWNDMGWYRQAPGKERELVAAITGSDGTYADSVKGRFTISRDNAKNTVYLQMNSLKPEDTAVYYCAAETYGYFPWKYDYWGQGTQVTVSS | low polyreactivity
9 | QVQLVESGGGLVQAGGSLRLSCAASGFTFERYTMGWYRQAPGKEREMVATISRRSGRTSYADSVKGRFTISRDYAKNTVYLQMNRLQPEDTAVYYCAVDDAYPDRYDYWGQGTQVTVSS | high polyreactivity
10 | QVQLVESGGGLVQAGGSLRLSCAASGSIFSRYAMGWYRQAPGKERELVAGISRGSSTYYADSVKGRFTISRDNAKNTVYLQMNSLKPEDTAVYYCARSGGSGGYYYWGQGTQVTVSS | low polyreactivity
11 | QVQLVESGGGLVQAGGSLRLSCAASGFTLTRNAMGWYRQAPGKERELVAAISWSGGTTYYADSVKGRFTISRDNAKNTVYLQMNSLKPEDTAVYYCAADYTLQRQTSFLDSEFYWGQGTQVTVSS | high polyreactivity
12 | QVQLVESGVGLVQAGGSLSLSCAASGSTFTRYAMGWYRQAPGKERELVASISRSGNTYYADSVKGRFTISRDNAKNTVYLQMNSLKPEDSAVYYCAAKRKSYYSYNFDYWGQGTQVTVSS | high polyreactivity
13 | QVQLVESGGGLVQAGGSLRLSCAASGSTFGPYVMGRYRQAPGKDRELVAAITRSGGRTYYADSVKGRFTISRDNAKNTVYLQMNSLKPEDTAVYYCAAPPSEATSQRYKYNYWGQGTQVTVSS | high polyreactivity
14 | QVQLVESGGGLVQAGGSLRLSCAASGYTFWLYAMGWYRQAPGKERELVATISRRAGTTYYADSVKGRFTISRDNAKNTVYLQMNSLKPEDTAVYYCNTDGYPRLYIYDYWGQGTQVTVSS | low polyreactivity
15 | QVQLVESGGGLVQAGGSLRLSCAASGSTFYAYGMGWYRQAPGKERELVATITWSGGSTYYADSVKGRFTISRDNAKNTVYLQMNSLKPEDTAVYYCAARSPFPTIADGDYWGQGTQVTVSS | low polyreactivity
16 | QVQLVESGGGLVQAGGSLRLSCAASGNTFVTYTMGWYRQAPGKERELVADISSGGSTYYADSVKGRFTISRDNAKNTVYLQMNSLKPEDTAVYYCAVQQAVFRSYYIYHRYYWGQGTQVTVSS | high polyreactivity
17 | QVQLVESGGGLVQAGGSLRLSCAASGSTFDDYVMGWYRQAPGKERELVAGINSRGTSTDYADSVKGRFTISRDNAKNTVYLQLNSLKPEDTAVYYCAADDSHGYDYWGQGTQVTVSS | low polyreactivity
18 | QVQLVESGGGLGQAGGSLRLICAASGSTFRHYAMGWYRPAPRKERELVAVISWGGTSTYYADSVKGRFTISRDNAKNTVYLQMNSLKPEDTAVYYCNKAYFPIFKGYEMYYWGQGTQVTVSS | low polyreactivity
19 | KVQLVESGGGLVQAGGSLRITCAASGSNQASNAMGWYRQAPGKERELVAAIRVSGASTYYADSVKGRFTISRDNAKNTVYLQMKSLKPEYNAVYYCAADYQFGVIYYYWGQGTQVTLSS | low polyreactivity
20 | QVQLVDSGGGLVQAGGSLRLSCASSGRIFTKYSMGLYRQAPGKERELVAGISGSGTITYYADSVKGRFTISRDNAKNTVYLQMNSLKPVDSAVYYCNAGRVTNRTPRYDYWGQGTQVSVSS | high polyreactivity
21 | QVQLVESGGGLVQAGGSLRLSCAASGRTFPYYAMGWYRQAPGKERELVAAINSGGITNYADSVKGRFTISRDNAKNTVYLQMNSLKPEDTAVYYCAAKTAFYRERGYWGQGTQVTVSS | low polyreactivity
22 | QVQLVESGGGLVQAGGSLRLSCAASGSTFFVNTMGWYRQAPGKERELVAAIRRRGGSTYYADSVKGRFTISRDNAKNTVYLQMNSLIPEDTAVYYCAADSYSRYYYWGQGTQVTVSS | high polyreactivity

Row | Sequence | polyreactivity (PSR sort gate)
23 | QVQLVESGGGLVQAGGSLRLSCAASGSTFAKNAMGWYRQAPGKERELVAAISSGGSTYYADSVKGRFTISRDNAKNTVYLQMNSLKPEDTAVYYCAASWKQGYRTYGYWGQGTQVTVSS | high polyreactivity
24 | QVQLVESGGGLVQAGGSLRLSCAASGFIIDSNAMGWYRQAPGKERELVAAIDYSGGSTYYADSVKGRFTISRDNAKNTVYLQMNSLKPEDTAFYYCAAEYHGYRYNYYPYSHYFIYEYWGQGTQVTVSS | high polyreactivity
25 | QVQLVESGGGLVQAGGSLRLSCAASGFIFYRNAMGWYRQAPGKERELVAAISKSGGITYYADSVKGRFTISRDNAKNTVYLQMNSLKPEDTAVYYCAKASQNGYDYWGQGTQVTVSS | high polyreactivity
26 | QVQLVESGGGLVQAGRSLRLSCAASGSTFHPYAMGWYRQAPGKERELVAAINSGDNTYYADSVKGRFTISRDNAKNTVYLQMNSLKPEDTAVYYCAVRYWDESHTEYDYWGQGTQVTVSS | low polyreactivity
27 | QVQLVETGRGLVQAGGSLRLSCAHSGRTFFSYAMGWYRQAPGKEREFVAAITGGGTYYADSVKRRFTISSDNAKNTVYLHMNSLKPEDTAVYYCAAAKRGTDYLSSFWMDYWGQVTQVTVSS | low polyreactivity
28 | QVQREESGGGLVQAGGSLRLSCAASGSTFDGNSMGWYTQAPGKERELVAAIRKSGGRTYYADSVKGRFTISRDNAKNTVYLQMNSLKPDDTAVYYCAAYERGFTYRRYYWGQGTQVTVSS | high polyreactivity
29 | QVQLVESGGGLVQAGGSLRLSCAASGRTKQRKAMGWYRQAPGKERELVAAISSSGGSTYYADSVKGRFTISRDNAKNTVYLQMNSLKPEDTAVYYCAADGQFDDYYSLPFYYDYWGQGTHVTVSS | high polyreactivity
30 | QVQLVESGGGLVQAGGSLRLSCAASGNIFLYYAMGWYRQAPGKERELVADIDSSGASTYYADSVKGRFTISRDNAKNTVYLQMNSLKPEDTAVYYGAKDSNRYSYYSPYDSWGQGTQVTVSS | low polyreactivity
31 | QVQLVESGGGLVQAGGSLRLSCAASGGIFTLYVRGWYRQAPGKERELVAAISRTGGSTYYADSVKGRFTISRDNAKNTVYLQMNSLKPEDTAVYFCAALYRGGTRYGGYDYWGQGTQVTVSS | low polyreactivity
32 | QVQLVESGGRLVQAGGSLRLSCAASGSIFDNYVMGWYRQAPGKERELVAAINSSGGSTYYADSVKGRFTISRDNAKNTVYLQMNSLKPEDTAVYYCIATDGITPYDLTDIEFDYWGQGTQVTVSS | low polyreactivity
33 | QVQLVESGGGLVQAGGSLRLSCAASGRTLTYNVMGWYRPAPGKERELVASISATGGSTYYADSVKGRFTISRDNAKNTVYLQMNSLKPEDTAVYSCAARGYRYHYATRYDYWGQATQVTVSS | high polyreactivity
34 | QFHLVESGGGLVQAGGSLRLSCAAAGYTYGYYTMGWYRQAPGKERELVAAIDSGGRTNYADSVKGRFTISRDNAKNTVYLQMNSRKPEDTAVYYCAAESPLYWVDDFESGWRYYYWGQGTQVTVSS | low polyreactivity
35 | QVQLVESGGGLVQAGGSLRLSCAASGGTFRPNAMGWYRQAPGKERELVAAITRSGGSTYYADSVKGRFTISRDNAKNTVYLQMNSLKPVDTAVYYCARDLREWGQGTQVTVSS | low polyreactivity
36 | QVQLVESGGGLVQAGGSLRLSCAASGRIFETNAMGWYRQAPGKERELVAVITRGGSTYYADSVKGSFTISRDNAKNTVYLQMNSLKPEVTALYYCNVRRLYGYGYYYWGQGTQVTVSW | low polyreactivity
37 | QVQLVESGGGLVQAGGSLRLSCAASGIIFTYAIGWYRQAPGKERELVAAIDWRGGRTYYADSVKGRFTISRDNAKNTVYLHMNSLKREDTAVYYCGARLGGGTYYWGQGTQVTVSS | high polyreactivity
38 | QVQLVESCGGLVQAGGSLRLSCAASGSTFWKYVMGWYRQAPGKDRELVAAISGRGGSTYYADSVKGRFTISRDNAKNTVYLQMNSLKPEDTAVYYCAKVHTRRKPYNSWGQGTQVTVSS | high polyreactivity
39 | QVQLVESGGGLVQAGGSLRLSCAASGRIFGYYAMGWYRQAPGKERELVAAISRSGSSTYYADSVKGRFTISRDNAKNTVYLQMNSLKPEDTAVYYCNSEKYYRAYLLPFNYWGQGTQVTVSS | high polyreactivity
40 | QVQLVESGGGLVQAGGSLRLSCAASGRTFSGNAMGWYRQAPGKERELVAAINWRGGRTYYADSVKGRFTISRDNAKNTVYLQMNSLKPEDTAVYYCAVSAYKGYDYWGQGTQVTVSS | high polyreactivity
41 | QVQLVESGGGLVQAGGSLRLSCAASGSIFNSNAMGWSRQAPGKERELVAVISWSDGSTRYADSVKGRFTISRDNAKNTVYLQMNSLKPEDTAVYYCNADLVYYYRQEVDYWGQGTQVTVSS | low polyreactivity
42 | QVQLVESGGGLVQEGGSLRLICAASGRTVNTNALGLYRQAPGKEREFVAAISRSGGSTRYADSVKGRFTISRDNAKNTVYLQLNSLKPEDTAVYYCAAVRFRPRGNEYWGQGTQVTVSS | high polyreactivity
43 | QVQVVESGGGLVQAGGSLRLSCAASGSIFFVYAMGWYRQAPGKERELVAAISSGDITYYADSVKGRFTISRDNAKNTVYLQLISLKPEDTAVYYCNAERLGNTLSPGGDDYWGQGTQVTVSS | low polyreactivity
